Test results published in patent US20230331850A1.

Columns and labels:
Assay in all cases: Bio-Layer Interferometry (Precision Antibody)
[1] = target: p63:IA^g7 (recombinant peptide:MHCII monomer / tetramer) (mouse)
[2] = target: 2W:IA^b (recombinant peptide:MHCII monomer) (mouse) (UniProt P14434)
Eα52-68:IA^b (mouse) = Eα52-68:IA^b (mouse) (UniProt P14434)

Row | Substance | Kd [2] [nM] | further results
1 | 10-2.16 MAb (anti-IA^g7) (antibody) |  | Kd [1]: 2.9 nM
2 | AF6-120.1 (antibody) | 7.1 | 
3 | Y3P (antibody) | 1.9 | 
4 | Y-Ae (anti-Eα:IA^b) (antibody) |  | Kd (Eα52-68:IA^b (mouse)): 0.48 nM
